Assay: protease stability score; higher = more stable; yeast display proteolysis, trypsin and chymotrypsin;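 further: relative to predicted unfolded state with 0 unfolded-like and 1 meaning tenfold more protease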

Compared with “HEEKENIEQFMRDLLHNWTTGNFEKIKEFLDPNTRIDWNGKDIHGRETESEEVKKYGIDHMSIILRHHTVQGDYAHIDTEIKIDINGRKIHIDARIDLLKINGRWVQKHVLYL”, “SEEDEKKEEETRLMLEWWRTGDEHAIARNMDPDARLEVDGKERHGREEVLRFISEMLKRLGVDHVRITDWRIIGDFVEVDLSIEVGDKSRKFHLHFFIIDGRIKEIKIDER” is higher in protease stability score: 1.3 for the first, 1.39 for the second.

Compared with “DHDKEYADRSIELWLKSHETGDEELVMRLADPHARVYVGEYEDHGREMVMIMLRVLGVDHYSVRSWHVQGDKVSITGELQVGDKKFRSHLTVRKVNGRWLLSEVRIG”, “HEEEHVAKEIVEILYHAIITGDEDLIKELMDPNVRLDINGKQVHGRDEWIKELRHLRFRHMKLEVKAVEVVDGRIHSDVILHVDGHFDGRTRRLTIEVHWIIFKINGRWHIQSVEIR” is higher in protease stability score: 1.16 for the first, 2.31 for the second.

Compared with “SDEEDTLESVYKLLEHIERTGDWRIWKELADPNVRVELHVNGVEITDHGREAVERLMLKFGVDHIHFKDFDHRTYNGVVHIQEDIVLNINGREIRTKREISADKVNGKWVFRSVRMKID”, “DEDEQMKESLLKIYRQSMHTGDEESHERLADPNVRVDWDGVRYHGRHILAIILHELGADHMDLKIKDSRLVNGRIHMTVIEIIDIGDKKHKIETHLIADKFDGRWHLRTLEIR” is lower in protease stability score: 1.69 for the first, 0.785 for the second.

Going from “SEDEEEIKTTFENLDRSIRTGDEDHVRKLADPTMRLDWNGQEFHGREWFSKHLSEFVKRADHFEIRLHDLDMVNGKLHIDGQLILIINGRTQILKLHLVFIKVDGRWILDNVQVN” to “HDEERELTIVSERIIKIFETGDWEELHKMADPRVKVIVNGRETHGMERYVKHLEQIRTILTNIHLHDVDLQGDFLHIDLEARGRILVNGRDTTFNWELKITIDKFDGRWRMKRINVN”, the protease stability score rises from 1.04 to 2.16.

Compared with “DEDDENVEQFIELFNEVMNTGDWRSLKRMIDPNARSRIGEKHLIGREMLEDFRHQADHVKIRDMKIERSHVINGRVLVDGIVHGEENFNGRRFLVNREVHLVVVKVNGRWFLRSIEFG”, “DEQEKELEEFLKLLLYAIWTGDEDTITELADPNVRMHIGDKLNHGWEILSDRLTEIRSDIHDFKLRHIETIGNKMTLFGDLNGQINVGDKEKRTIIHMILHVHKIDGRWLLTHIHFD” is lower in protease stability score: 0.809 for the first, 0.265 for the second.

Compared with “DEEEDHERHLVERTIHSLETGDWHETHELLDPHVRIQIVQGDKSLDLHGREAAVKFFLDWLRRVPNMRLEFKRIEDYDGVSHIDGVLRIGDKEMRFEIEIHVFNGVVKRMHIRMH”, “SEDEKMAERVLRLLYEDILTGDEHALKRLLDPDARLSQGDKQHHGREVLLEWMRTVWERVDHMEFELKDFRFYGNYIIIHGTLTERINGRKLEFEVILYVYKINGKWFLHSIEIR” is higher in protease stability score: 1.38 for the first, 1.85 for the second.

Going from “DEEHEAIEQFLRIIIENARTGNEEFLYKYFDPHVRIHIDGQNMVGREEWVEWLRQIRHQVDSFHIKHIEVQGDKLILEGHLEIKLHINGQELHKHVEVRYEINKVNGRWLLRSVHIK” to “TEDHEIVEDALRLWWTSVHTGDETLMSRLADPDVRLIVGDKHFHGREKFTRTMKELDDEMRFHHLEIKEFELFDGRIKINVRLRGTIGDKHTIFEVNVINLKVNGKWLLKSLEVR”, the protease stability score falls from 1.74 to 1.1.

Going from “DEEEEHAITFMKILIHLWITGDWETLKRLADPDTKVIERFNGKRVEIHGRELWSKIRKEIIDQLRIRIHPHHVSVVGDKLYSDEHLVFHYNGRDIRLDIHLEMVVVNGRMKHFRFHEE” to “SEDEDLSRHLSELWLDALRTGDEKSTHKMADPHTRVEVGDKTDHGMEVWNRIFERFKGARLEITEWRTIGEKVHYHMHIEYGDKHVDVEIEIIQINGQVKEFIIRVRIK”, the protease stability score falls from 1.06 to 0.249.

Going from “DEEDELSHQIAEEFFRFFSTGNEEKSKELLDPDVRVESEDHHDHGMHKLLHLWNRIDHIHMRSRHVEFDRVGDFLEIRMRGHVILDVNGVRTEIDTELLLVVTKFDGRWLMHEVKFIIR” to “SEEEEEAERIYRNWLHNLHTGNEESERLMADPDVRYEINGVERVGWEEVHHFLREIRVHLRHVEIKHSDLINGRAHIEGHVDMEVRVNGVTMRIRTDTILRVVVIDGRLKSVSQEIL”, the protease stability score falls from 0.696 to 0.648.

First: EEEEKMARKMIKDIIENFRTGDWDLMETLADPDVRLHFNGRDYHGREEFLKIERTRFEKVPNVRETERNVTWRNFDGRLELEIHTEHIINGVRIHVLLIFTTEKINGRWSMKSIEIHEK
Second: DEDEEFAENVVERTIHHTQTGDWRMLKHLLDPHVRMNIDGQELHGREQWIRFMEQIKGATLELHIEDFDSQGEKLTLHVRTILVFDGRKYERHVDLLILKVDGRWHIHQFIVR
The protease stability score of the first is lower: 0.704 for the first, 1.41 for the second.

First: SEEEEWAEIASKLEIEIYLTGDFERFRKFADPHVRYEIHIDGREFKIHGMELYSEWLLRFKGVRLFIKDERISVIGDKLYIHINGDLEFNGRRQDVHFEFLTLKVDGRWIVKKIRNESR
Second: DERHDDRNHAIEAFKFMLDTGDWRVYSRNIDPNMRLEIGDKTFHGREELEHHITQIDHHHTHTLTIEHIDRVGDFVDIHITLSVTVIFDGRNETKTFHVDIHLVKIDGKWLIHKESVK
The protease stability score of the first is higher: 1.59 for the first, 0.545 for the second.

Compared with “DEQEQHAFKFFEHHTEILKTGDWEEVRKNLDPHVRLHVNGVEMHGMEHATELALKEDTEIRSELRLEDVDVQGDKVRFDIRLIYHIGDKTIVHKIDLVMIKINGRWLVHSIHVE”, “HQDDDELKHFLELFIEQHETGDEHRLRKMADPRTRVEINGQEIHGMDQLVRHWLEFRKRMGVDHTHVILEHFHFQGDKVSARLRLIFIVGDKTFETDMNVIVVKVDGKWLIHEVSTR” is higher in protease stability score: 0.36 for the first, 1.22 for the second.

First: DDEEKETEDFLRLLIEFLLTGDEERLKDLLDPNTRLEYGEFDFVGREHVLEWRHHYRKILGAKHRELRIEHLHVIDGRVNAISRVHLRFDGREYSHETIIIIEKVNGKWLLHSEEIR
Second: HEDERLMKEALEMIIESFRTGDEHTIEELADPHARVIVGDKHHHGWHELLKRVLELGVKHVNVRDMRVIGDKLEVKLELHVGDKTFDSRLHVLKVNGKWHIQFVEIH
The protease stability score of the first is lower: 1.33 for the first, 1.75 for the second.

First: DEEDRELERIYQELFEAWLTGNEDDLKKLADPNVRVDINGKDKVGREQEIEDLRRVKNMKVKLEDSDIIGDWITVDVVINFNGREIRMELEWRVINGKVKRVIVRYR
Second: DEVHEEAERASEHFFESLLTGDEKSTESFIDPHAKMEFSFNGRNYDMIGRMWVEIEHRLLGIDHYIHKDNRTHSQGEKLLLIIHGRIRVGDKEFDVELHVIMMKIDGQWNVKRLEVRVK
The protease stability score of the first is lower: 1.2 for the first, 1.25 for the second.

Going from “DEEEKLARKIVEDWVRAMTTGDEDDLRRLADPNVRHDINGVELHGMDEWLRVLLERGYEIRIQFRHIRVYDGRVEIDIDLEIRIGDKHHHHHVHLIFEKIDGRWRMKSEKTD” to “SEDDHELKEELKIIMKSSLTGDEDTLNRLADPHARIHQGEFNLHGREEFSRLFVELRMHDIRIEDYEVIDGRVEVDIRLNIHYNGKRYIKVTRSVFRKVDGRWLIEEVRYD”, the protease stability score falls from 1.9 to 0.494.

Compared with “SEDEEMAKESVEHVIHALETGDFELFHKMADPSVQLDIDGREFIGWEEVRKHLEELRIERVHIRRLHIELINGQVRSTSDIEMDIRIGDYKIRTEVKVHIIIDKVNGRWRLRSMKIINH”, “DELRKEAEEHAQHLLDLFDTGDWDRISELADPNTLVIIDINGVHINNVGWEEIRKLWEITRHHLRIEERRVESSRTFENRVELDVKDHIKVGNKKINLDSHITIDVVNGQMKRVDFQLR” is higher in protease stability score: 1.57 for the first, 2.04 for the second.

Compared with “REENEMLKRAIKHILRVLETGDFEDLSKMFDPHARLFFNGVLFMGRENVEHHWERERERYKNLRLHFRHVNYHVQGDKVFVEYHVDVTVGDKKWEVHFHFIVIKINGQWYNEDLEIEIR”, “SEEDELAREVSRIFTEASRTGDEERLIRLIDPHAKIQIGDKHFIGREDMEEWTRRLVERVDHLEVFIEDSRLIGNKLDVKGLFIEDYGDKRTVLEVRWILVKINGRWSIHSLHFK” is lower in protease stability score: 1.66 for the first, 1.23 for the second.

Compared with “SEDERYAEIADRIVRHSQETGDETDHMRMMDPDVRIEIGDKRYHGRELEHKLLKIWGVTRIEYDVRSIEVQGEKVRIDGVINFNGVELKIILYVLKFNGKWSYTKVEIQ”, “SEEDSKAMEMLDEWLKWLLTGNEHIFRTLADPHVRLTIGDKEHVGREHVIRMFHELRIDHFHVHDVRTQGDKAFMSGRMEGTVDGKKEDTDIRIFLVIVNGRIKHIELRIH” is lower in protease stability score: 1.84 for the first, 1.52 for the second.

From the NTF2 design screens of Basanta et al. (2020)
